The text below walks through data of publication doi:10.1101/2024.01.26.576347.

Experiment [1] addresses α-tubulin (human (endogenous in VTC-037 GSCs)) (UniProt P68363). As to the kind of experiment: cellular thermal shift assay.
In experiment [2] the target is β-tubulin (human (endogenous in VTC-001 and VTC-037 GSCs)) (UniProt P07437). Description: cellular thermal shift assay.

α-tubulin (human (endogenous in VTC-037 GSCs)), sequence (P68363 whole entry): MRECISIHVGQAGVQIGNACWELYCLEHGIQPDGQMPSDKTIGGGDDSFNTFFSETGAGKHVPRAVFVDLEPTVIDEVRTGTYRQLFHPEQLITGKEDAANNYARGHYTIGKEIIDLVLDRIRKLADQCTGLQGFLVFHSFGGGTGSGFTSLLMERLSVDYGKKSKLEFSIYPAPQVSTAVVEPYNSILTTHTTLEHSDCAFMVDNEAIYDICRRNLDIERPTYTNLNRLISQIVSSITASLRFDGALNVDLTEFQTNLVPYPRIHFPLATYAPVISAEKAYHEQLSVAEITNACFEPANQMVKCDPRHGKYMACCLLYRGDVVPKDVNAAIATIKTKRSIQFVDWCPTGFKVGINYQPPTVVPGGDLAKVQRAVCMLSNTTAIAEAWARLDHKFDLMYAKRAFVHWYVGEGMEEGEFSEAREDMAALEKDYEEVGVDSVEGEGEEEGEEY

The term EC50 denotes the concentration giving half of the maximal effect. Take “JM2 (juxtamembrane 2), Cx43 mimetic peptide (from UniProt P17302 231-245)”: the results for the EC50 in experiment [1] and in experiment [2] were 8.4 nM and 7.9 nM, respectively.
